Source: IntAct's records for PubMed 28319063

B1: Partner and localizer of BRCA2 (Mus musculus), Q3U0P1 (parent)
chain: MEELSGKPLSYAEKEKLKEKLAFLKKEYSRTLARLQRAKRAEKAKNSKKAIEDGVPQPEASSQLSHSESINKGFPCDTLQSNHLDEETGENISQILDVEPQSFNCKQGKEVLHTPRAGDIQGQLLHSTSSPDGKKEQNTLPGTTKTPWEKSSVSQEKEDYFDTNSLALLGKHRKGQESISRKNSRTPVSEKTHLLSLRSQIPDPPALVTGIGEGILIPPSGKSERGIDTLVRGNTVSAEAAVPSCTASNSNHSQHLEHTPPKSGCKITTQGPASSTNLVAQDQKMTIFTVNSVVYKAVRAHGQLPGSPNSCSVNDLTHSNLPANSTPNSKSLKSPSNTVDERNEPLQEDEILGPSKNFNLAAVSPPSTESQIHSCTMLEGLLFPAEYYVRTTRRMSDCQRKIALEAVIQSHLGVKKKELKKKTKATKAVVLSSEDTDQSESGMLDTSTGQSSSGSLSQKLLSPAEVSSPPGPAGKATTPPPGRGHRGKRKSARTSTLGHCQLLFPPCAALAVNRSKGKFTKHKCQNRGVVIHDFELPDEDFGLLKLEKLKSCSEKLIESPDSKNCGERLPREGNHAALEELQRDSETEGLEEELTVPPGEAYRPGPTLRRQPGSKDLSSSIVLFTPADTAAPNDSGRPPPSLCSPAFPILGMTPALGSQAAGETLSTEAAQPCSTSQPPLLGDTNSLVNNSKQCNSSACSPKPDTNLQASGRQGQPACDSDSGPQATPLPVESFTFRENQLCGNACLELHEHSTEQTETADRPACDNLNPGNLQLVSELKNPSSSCSVDVSAMWWERAGAKEPCIVTACEDVVSLWKPLNSLQWEKVHTWHFTEVPVLQIVPVPDVYNLICVALGSLEIREIRALLCSSGDDSEKQVLLKSGDIKAMLGLTKRRLVSSTGTFCNQQIQIMTFADDGSSKDEQLLMPPDETVLTFAEVQGTQEALLGTTTVNSIVIWNLKTGQLLKKMHIDDSYQASVCHGAYSEKGLLFVVVSQPCAKESQALGSPVFQLLVINPKTAQSVGVLLCSLPQGQAGRFLEGDVKDHVAAAVLTSGTIAIWDLLLGHCTALLPPVSDQSWSLVKWSGTDSHLLAGQKDGNIFIYRYF

Variants of: B1
Details: with brca1_human BRCA1, P38398
brca1_human BRCA1, P38398, sequence (P38398 whole entry, looked up): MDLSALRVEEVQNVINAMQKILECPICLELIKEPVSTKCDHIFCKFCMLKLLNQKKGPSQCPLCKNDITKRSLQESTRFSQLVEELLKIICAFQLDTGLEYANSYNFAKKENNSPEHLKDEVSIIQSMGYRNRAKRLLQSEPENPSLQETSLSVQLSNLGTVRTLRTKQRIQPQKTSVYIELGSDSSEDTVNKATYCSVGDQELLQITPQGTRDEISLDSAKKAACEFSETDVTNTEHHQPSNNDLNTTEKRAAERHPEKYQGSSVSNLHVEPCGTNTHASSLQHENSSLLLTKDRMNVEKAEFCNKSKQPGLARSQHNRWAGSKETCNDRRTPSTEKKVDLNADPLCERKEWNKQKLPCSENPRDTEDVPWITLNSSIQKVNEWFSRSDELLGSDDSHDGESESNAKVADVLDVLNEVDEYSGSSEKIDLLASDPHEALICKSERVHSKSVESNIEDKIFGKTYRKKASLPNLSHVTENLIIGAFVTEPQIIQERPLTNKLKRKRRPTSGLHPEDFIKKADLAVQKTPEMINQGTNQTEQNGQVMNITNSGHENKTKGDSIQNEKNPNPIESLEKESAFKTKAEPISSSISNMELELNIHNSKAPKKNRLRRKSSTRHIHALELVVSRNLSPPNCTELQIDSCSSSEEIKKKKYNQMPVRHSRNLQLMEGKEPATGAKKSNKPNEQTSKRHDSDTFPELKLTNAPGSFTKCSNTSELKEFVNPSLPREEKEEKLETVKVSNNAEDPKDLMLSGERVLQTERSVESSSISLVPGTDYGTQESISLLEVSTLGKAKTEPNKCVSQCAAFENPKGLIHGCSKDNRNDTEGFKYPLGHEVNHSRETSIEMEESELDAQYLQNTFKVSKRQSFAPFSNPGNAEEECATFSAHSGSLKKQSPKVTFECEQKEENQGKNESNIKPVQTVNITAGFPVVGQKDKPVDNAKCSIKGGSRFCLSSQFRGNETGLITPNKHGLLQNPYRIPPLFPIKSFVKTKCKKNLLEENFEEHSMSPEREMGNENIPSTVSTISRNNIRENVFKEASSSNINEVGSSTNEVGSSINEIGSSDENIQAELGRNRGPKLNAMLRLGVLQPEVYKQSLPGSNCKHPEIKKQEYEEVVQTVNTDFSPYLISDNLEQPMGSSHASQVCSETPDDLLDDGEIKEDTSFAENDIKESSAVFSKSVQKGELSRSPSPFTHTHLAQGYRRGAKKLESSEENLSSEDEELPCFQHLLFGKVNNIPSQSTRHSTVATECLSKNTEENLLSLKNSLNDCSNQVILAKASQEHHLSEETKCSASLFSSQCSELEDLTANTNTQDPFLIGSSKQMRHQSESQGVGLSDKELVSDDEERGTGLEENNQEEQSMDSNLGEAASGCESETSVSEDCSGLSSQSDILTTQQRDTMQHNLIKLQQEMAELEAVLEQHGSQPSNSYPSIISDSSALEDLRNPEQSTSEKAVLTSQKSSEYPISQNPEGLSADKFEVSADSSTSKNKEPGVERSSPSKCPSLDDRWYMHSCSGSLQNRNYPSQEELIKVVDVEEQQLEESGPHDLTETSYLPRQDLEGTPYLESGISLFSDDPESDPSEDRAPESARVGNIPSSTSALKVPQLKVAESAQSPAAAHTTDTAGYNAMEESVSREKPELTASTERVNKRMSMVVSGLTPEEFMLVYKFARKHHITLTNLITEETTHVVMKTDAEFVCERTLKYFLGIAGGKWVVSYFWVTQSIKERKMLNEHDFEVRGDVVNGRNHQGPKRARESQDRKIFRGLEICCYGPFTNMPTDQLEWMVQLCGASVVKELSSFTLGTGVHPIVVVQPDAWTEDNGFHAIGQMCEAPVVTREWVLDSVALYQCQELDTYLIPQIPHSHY

Variant | effect of a mutation on the interaction
K18R | with no effect
Y28C | disrupting interaction

Other lines, results leading:

effect of a mutation on the interaction | Variant
with no effect | R37H
disrupting interaction | L35P
